Measured values: US20220119472A1 (ORIONIS BIOSCIENCES, published 2022)

T1: recombinant His6-tagged extracellular domain of human Clec4C (C-type lectin domain family 4, member C) (human, UniProt Q8WTT0 44-213)
T1 construct: Same antigen for immunisation, panning and ELISA; also called His-Clec4C(EC); pMET7-SIgK-His-Clec4C(EC)
T1 sequence: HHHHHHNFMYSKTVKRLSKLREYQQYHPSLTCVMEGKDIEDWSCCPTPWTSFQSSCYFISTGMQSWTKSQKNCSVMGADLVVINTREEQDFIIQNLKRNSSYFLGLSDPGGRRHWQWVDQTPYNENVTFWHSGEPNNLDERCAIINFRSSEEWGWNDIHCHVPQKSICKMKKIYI


Assays:
[1] = target: T1, recombinant His6-tagged extracellular …; assay: ELISA, antigen-coated vs uncoated blocked wells
Text: (§1) In total, 190 colonies from rounds 1 and 2 were randomly selected and analyzed by ELISA for the presence of antigen-specific VHH in their periplasmic extracts (ELISA using crude periplasmic extracts from TG1 cultures including soluble VHH). The antigen used for ELISA screening was the same as the one used for immunization, using uncoated blocked wells as negative control.

[2] = target: T1, recombinant His6-tagged extracellular …; assay: ELISA, TG1 periplasmic extract on coated antigen
Text: as §1

Binder	ELISA ratio coated/uncoated [1]	ELISA coated [2]
2CL21 (VHH, pMECS VHH-HA-His6; TG1 periplasmic extract) VHH: QVQLQESGGGLVQAGGSLRLSCAASGRTFTGYAMGWFRQVPGLEREFVARISRSGNSTGYADSVKGRFTVSRDNAKSTMYLQMNSLKTEDTAVYYCAATTSWLPGHNANVYDYWGQGTQVTVSS	4.23	3.89
2CL71 (VHH, pMECS VHH-HA-His6; TG1 periplasmic extract) VHH: QVQLQESGGGLVQAGGSLRLSCAASGLTFGRYAMGWFRQVPGLEREFIARISRSGDNTGYADSVKGRFTVSRDSAKSTVYLQMNSLKTEDTAVYYCAAGTSWVPGHNANAYDYWGQGTQVTVSS	5.33	4
2CL30 (VHH, pMECS VHH-HA-His6; TG1 periplasmic extract) VHH: QVQLQESGGGSVQAGGSLRLSCAASGRTFSDYAMGWFRQVPGLEREFVARISRSGDSTGYADSVKGRFTVSRDNAKNTVYLQMNSLKTEDTAVYYCAATTSWLPGHNANVYDYWGQGTQVTVSS	8.28	3.79
1CL48 (VHH, pMECS VHH-HA-His6; TG1 periplasmic extract) VHH: QVQLQESGGGLVQPGGSLRLSCVGSGSTFRHHAMAWFRQTAGKEREFVSAINNHGTKTRYSDSVRGRFTISRDNDENMVYLQMDNLRPEDTAVYSCAAGPLVDYLETVPVVYTYWGQGTQVTVSS	7.83	3.85
1CL21 (VHH, pMECS VHH-HA-His6; TG1 periplasmic extract) VHH: QVQLQESGGGLVRPGGSLRLSCVGSGSTFRHHAMAWFRQTTGKEREFVSAINDHGTKTRYSDSVRGRFTISRDNDENMVYLQMDNLRPEDTAVYSCAAGPLVDYLETVPVVYTYWGQGTQVTVSS	11.1	3.79
2CL8 (VHH, pMECS VHH-HA-His6; TG1 periplasmic extract) VHH: QVQLQESGGGLVQPGGSLKLSCAGSGSTFRHHALAWFRQTAEKEREFVSAINDHGTKTRYSDSVRGRFTISRDNDGNMVYLQMDNLRPEDTAVYSCAAGPLVDYLETVPVVYTYWGQGTQVTVSS	15.7	1.81
2CL4 (VHH, pMECS VHH-HA-His6; TG1 periplasmic extract) VHH: QVQLQESGGGLVQPGGSLRISCAGSGSTFRHHAMAWFRQTAGKEREFVSAINDHGTKTRYSDSVRGRFTISRDNDENMVYLQMDNLRSEDTANYTCAAGPLVDYLETVPVVYTYWGQGTQVTVSS	31.3	2.8
2CL43 (VHH, pMECS VHH-HA-His6; TG1 periplasmic extract) VHH: QVQLQESGGGTVQPGESLRLSCEVSTDTFSSLAMAWFRQATGKDREFVAAISWSGASTVYGDSVKGRFTMTRDHPKKMVYLQMDNLKPEDTAVYYCAGDLDGRTWHGDDLEYDYWGQGTQVTVSS	12.1	2.64
2CL84 (VHH, pMECS VHH-HA-His6; TG1 periplasmic extract) VHH: QVQLQESGGGSVQAGGSLRLSCAASGRTFSDYAMGWFRQAPGKEREFVATISKSGSSTDYADSAKGRFTISRDNAKKTVYLQINSLKTEDTAVYYCAARLSFDNTAFYTSAIRYSDWGQGTQVTVSS	18.2	3.86
2CL72 (VHH, pMECS VHH-HA-His6; TG1 periplasmic extract) VHH: QVQLQESGGGLVQPGGSLKLSCAASGSTFRHHAMAWFRQTPGKEREFVSAINDHGDRTKYLDSVRGRFTISRDNTDNMVYLQMSDLRPEDTAVYSCAAGPLVDYLETTPLVYTYWGQGTQVTVSS	21.5	3.63
2CL41 (VHH, pMECS VHH-HA-His6; TG1 periplasmic extract) VHH: QVQLQESGGGLVQAGGSLRLSCAASGSTFRHHAMAWFRQTPGKEREFVSAINDHGDRTKYLDSVRGRFTISRDNTDNMVYLQMSDLRTEDTAVYTCAAGPLVDYLETTPLVYTYWGQGTQVTVSS	20.9	4
1CL25 (VHH, pMECS VHH-HA-His6; TG1 periplasmic extract) VHH: QVQLQESGGGLVQPGGSLRLSCAASGSTFRHHAMAWFRQTPGKEREFVSAINDHGDRTKYLDSVRGRFTISRDNTDNMVYLLMSDLRPEDTAVYSCAAGPLVDYLETTPLVYTYWGQGTQVTVSS	5.81	4
1CL82 (VHH, pMECS VHH-HA-His6; TG1 periplasmic extract) VHH: QVQLQESGGGSVQAGDSLRLSCVAPGREISSPAMGWFRQAPGKEREFVATINWSSGATLTADSVKGRFTIFKDVEKNTVYLQMNSLRPEDTAVYSCAAGATGVFRIARAYSYWGQGTQVTVSS	6.23	3.01
1CL54 (VHH, pMECS VHH-HA-His6; TG1 periplasmic extract) VHH: QVQLQESGGGLAQAGASLRLSCAGSGNNFEHYAVAWFRQDAPGKERDFVAAIRDYGDRTRYDDSVKGRFTISRDNAKSMVYLEMNNLKPKDAAVYYCAAGPLNDYLEVTPLVYTYWGQGTQVTVSS	17	1.88
2CL52 (VHH, pMECS VHH-HA-His6; TG1 periplasmic extract) VHH: QVQLQESGGGLAQAGASLRLSCAGSGNNFEHYAVAWFRQEAPGKERDFVAAIRDYGDRTRYADSVKGRFTISRDNAKSMVYLEMNNLKPEDTAVYYCTAGPLNDYLEVTPLVYTYWGQGTQVTVSS	7.07	1.65
1CL2 (VHH, pMECS VHH-HA-His6; TG1 periplasmic extract) VHH: QVQLQESGGGLVQAGDSLRLSCAASGDTFSMYAMGWFRQAPGKEREFVAAISRSGGSTDYRDSVKGRFTISRDNDLNAGYLQMNSLKPEDTAVYYCALRLTFSTTTAYTGELQYPYWGQGTQVTVSS	4.36	3.74
2CL73 (VHH, pMECS VHH-HA-His6; TG1 periplasmic extract) VHH: QVQLQESGGGLVQAGDSLRLSCAASGNTFSMYAMGWFRQAPGKEREFVAAISRSGGSTNYRDSVKGRFTISRDNDLNAGYLQMNNLKPEDTAVYYCALRLTFSTTDAYTGKLQYPYWGQGTQVTVSS	4.93	2.43
2CL58 (VHH, pMECS VHH-HA-His6; TG1 periplasmic extract) VHH: QVQLQESGGGLVQAGDSLRLSCAASGDTFSMYAMGWFRQAPGKEREFVAAISRSGSSTNYRDSVKGRFTISRDNDLNAGYLQMNSLKPEDTAVYYCALRLTFSTTTTYTGELQYPYWGQGTQVTVSS	4.66	2.24
1CL32 (VHH, pMECS VHH-HA-His6; TG1 periplasmic extract) VHH: QVQLQESGGGLVQAGDSLRLSCAASGDTFSMYTMGWFRQAPGKEREFVAAISRSGGSTNYRDSVKGRFTISRDNDLNAGYLQMNSLKPEDTAVYYCALRLTFSTTTAYTGELQYPYWGQGTQVTVSS	9.9	3.22

Other lines, results leading:

ELISA ratio coated/uncoated [1]	ELISA coated [2]	Binder
9.74	2.68	2CL82 (VHH, pMECS VHH-HA-His6; TG1 periplasmic extract) VHH: QVQLQESGGGLVQPGGSLRLSCEVSTDTFSSLAMAWFRQATGKEREFVAAISWSGASTVYGDSVKGRFTMTRDHPKKMVYLQMDNLKPEDTAVYYCAGDLDGRTWHGDDLEYDYWGQGTQVTVSS
10.7	1.31	2CL89 (VHH, pMECS VHH-HA-His6; TG1 periplasmic extract) VHH: QVQLQESGGGTVQPGESLRLSCEVSTDTFSSLAMAWFRQATAKDREFVAAISWSGDSTVYGDSVKGRFTMTRDHPKKMVYLQMDNLKPEDTAVYYCAGDLDGRTWHGDDLEYDYWGQGTQVTVSS
11.4	3.89	2CL92 (VHH, pMECS VHH-HA-His6; TG1 periplasmic extract) VHH: QVQLQESGGGSVQAGDSLRLSCAASGRTFSGYAMGWFRQAPGKEREFVATISTSGSSTYYADSVKGRFTISRDNAKKSVYLQINSLKTEDAAVYYCAARLSFDNTAFYTSAIRYSYWGQGTQVTVSS
11.5	1.62	2CL87 (VHH, pMECS VHH-HA-His6; TG1 periplasmic extract) VHH: QVQLQESGGGLVQPGGSLRLSCAGSGSTFRHHAMAWFRQTPGKEREFVSAINDHGDRTKYTDSVRGRFTISRDNTDNMVYLQMSDLRPEDTAVYSCAAGPLVDYLETTPLVYTYWGQGTQVTVSS
32.7	3.75	2CL78 (VHH, pMECS VHH-HA-His6; TG1 periplasmic extract) VHH: QVQLQESGGGVVQPGGSLKLSCAASGSTFRHHAMAWFRQTPGKEREFVSAINDHGDRTKYLDSVRGRFTISRDDTDNMVYLQMSDLRTEDTAVYTCAAGPLVDYLETTPLVYTYWGQGTQVTVSS
23.2	4	2CL95 (VHH, pMECS VHH-HA-His6; TG1 periplasmic extract) VHH: QVQLQESGGGLVQPGGSLKLSCAGSGSTFKHHAMAWFRHTPGKEREFVSAINDHGDRTKYSDSVRGRFTIARDNTDNMVYLQMDDLLPEDTANYTCAAGPLVDYLETTPLVYTYWGQGTQVTVSS
12.2	4	2CL88 (VHH, pMECS VHH-HA-His6; TG1 periplasmic extract) VHH: QVQLQESGGGLVQPGGSLKLSCTGSGSTFRHHAMAWFRQTPGKEREFVAAINDHGDRTKYLDSVRGRFTISRDNTDNMVYLQMSDLRPEDTANYSCAAGPLVDYLETTPLVYTYWGQGTQVTVSS
7.54	4	2CL90 (VHH, pMECS VHH-HA-His6; TG1 periplasmic extract) VHH: QVQLQESGGGLVQAGGSLRLSCAASGSTFRHHAMAWFRQTPGKGREFVSAINDHGDRTKYLDSVRGRFTISRDNTDNMVYLQMSDLRPEDTAVYSCAAGPLVDYLETTPLVYTYWGQGTQVTVSS
